Columns and labels:
[1] = test system: BALIR-2; experiment: Effect of prednisolone on BALIR-2 expression in human B-ALL cell lines (RT-qPCR); type: cell-based
Experimental: (§1) To measure proliferation, cells were cultured for 3-5 days before plating. Reagents were added according to the manufacturer's instructions (Promega CellTiter 96 AQueous Non-Radioactive Cell Proliferation Assay kit) and cells were incubated at 37°, 5% CO2 for 4 hours before absorbance was measured at 490 nm. To measure apoptosis, cells were plated and treated with 100 ng/mL doxorubicin or 250 μg/mL prednisolone in DMSO and incubated at 37° C. and 5% CO2. An untreated group and DMSO-treated group were included as controls. Cells were harvested after 24 hours and lysed with buffer supplied by Biovision. Protein concentrations were normalized after measurement by Bradford assay. Reagents were added according to the manufacturer's instructions (Biovision Caspase-3 Colorimetric Assay kit) and absorbance was measured at 405 nm. To observe the effects of prednisolone on lincRNA expression, untransduced cell lines were plated and treated with either 250 μg/mL prednisolone in DMSO or DMSO alone as a control. Cells were incubated at 37° C. and 5% CO2 for 24 hrs. Cells were collected and RNA was extracted using Trizol reagent (Invitrogen).
(§2) RNA collected from samples was reverse transcribed using qScript reagent (Quanta Biosciences). Real Time quantitative PCR was performed with the StepOnePlus Real-Time PCR System (Applied Biosystems) using PerfeCTa SYBR Green FastMix reagent (Quanta Biosciences).

[2] = test system: RS411 cell line; experiment: Apoptosis, caspase-3 activity, RS411; type: cell-based, human; settings: for apoptosis measured by caspase-3 activity: RS411 stably transduced
Experimental: as §1, with “To measure apoptosis, cells were plated and treated with 100 ng/mL doxorubicin or 250 μg/mL prednisolone in DMSO and incubated at 37° C. and 5% CO2.” left out

[3] = test system: glucocorticoid receptor signaling pathway; experiment: Expression of glucocorticoid response genes in RS4;11 cells (microarray, RT-qPCR); type: cell-based, human
Experimental: as §2
Several of these clusters consist of genes involved in the glucocorticoid receptor signaling pathway, confirmed by functional annotation results (2-4 fold increases in FOS, HSPA6, SGK1, IL8, JUN, SERPINE1, CDKN1A and ICAM1 in siRNA group, both with and without prednisone treatment; FIGS. 13B and 13C). We confirmed knockdown of BALIR-2 and upregulation of FOS, JUN, SGK1 and SERPINE1 (FIG. 13D-F and FIG. 18E-F) by RT-qPCR. […] We also observed upregulation of the pro-apoptotic protein BIM in both knockdown and prednisolone-treated cells, which is a downstream target of JUN and an important mediator of glucocorticoid-induced apoptosis of lymphocytic cells (Heidari, et al, 2012) (FIGS. 13G and 13K).

[4] = test system: Balir-2; experiment: Balir-2 expression in 70Z/3 mouse cell line (RT-qPCR, normalized to L32); type: cell-based; settings: 70Z/3 cells, 6 hrs
Experimental: as §2
(§3) RACE was performed and two products were identified at this locus (FIG. 16E). We generated miRNA-formatted siRNAs (Rao, et al., 2010) against the mapped murine transcript and confirmed decreased expression in the murine pre-B cell line 70Z/3 (FIG. 14B). […] Similar to what we observed in human cell lines, Balir-2 knockdown led to an upregulation of Jun and Fos in all three of the cell lines with upregulation of Bim in two out of three cell lines (FIG. 14D-F). We further confirmed the upregulation of these proteins by western blot analysis (FIG. 14G). […] We also examined the effects of BALIR-2 expression in a second human B-ALL cell line, Reh (FIG. 18K-R), utilizing a novel method to target the transcript. Based on the method of Ulitsky et al, we generated a siRNA-like sequence within our miRNA formatted vector, targeting the splice junction of the BALIR-2 transcript (Ulitsky, et al., 2011).

[5] = test system: glucocorticoid response genes Fos, Jun and Bim; experiment: Expression of glucocorticoid response genes Fos, Jun and Bim in 70Z/3 cells (RT-qPCR, Western blot); type: cell-based, mouse
Experimental: as §2, §3

[6] = test system: 70Z/3 cells; experiment: Apoptosis in 70Z/3 cells (caspase-3 activity); type: cell-based, mouse
[7] = test system: BALIR-2; experiment: siRNA-mediated knockdown of BALIR-2 in human B-ALL cell lines (RT-qPCR, normalized to Actin); type: cell-based
Experimental: We designed two complementary “linker” strands containing restriction sites for BamHI (5′ intact), XhoI, XbaI, NheI, ApaI and BamHI (3′ mutated) as follows: 5′-[…]-3′ (forward) (SEQ ID NO. 11), 5′-[…]-3′ (reverse) (SEQ ID NO. 12). The oligonucleotides were ordered through Invitrogen and modified with 5′-phosphate groups. The complementary strands were annealed by heating to 100° C. and slowly cooling in a water bath. The pHAGE2-CMV-ZsGreen-W vector (previously described in (O'Connell, 2010)) was digested with BamHI (Fermentas) and the linker was ligated in using T4 DNA ligase (Fermentas). Colonies were sequenced (Laragen) to determine the correct orientation and verify the sequence of the insert and mutation of the 3′ BamHI site. miRNA-formatted siRNAs were cloned into BamHI and ApaI or XhoI in the P2CZL vector, using the strategy that we have previously described to generate knockdown vectors against protein coding genes (O'Connell, 2009; Rao, 2010).
All lentiviruses were produced by transfecting 293T adherent cells with knock-down vectors as listed in Table 1, using BioT transfection agent (Bioland Scientific). 2.5×10^5 293T cells were co-transfected in trans using an advanced generation lentiviral system in 6 well plates for 48 hours as described previously (O'Connell, 2010). At 48 hours, the viral supernatant was collected, filtered and used for spin infection of B-ALL cell lines. 5.0×10^5 cells were spin-infected at 30° C. for 90 minutes in the presence polybrene (4 μg/mL). Transduced cells were sorted for high ZsGreen expression as described above.
as §2

[8] = test system: RS411 cell line; experiment: Cell proliferation, MTS assay, RS411; type: cell-based, human; settings: RS411 stably transduced with siRNA
Experimental: as §1

[9] = RS411 cell line, stably transduced

Molecule: C[C@]12C=CC(=O)C=C1CC[C@@H]1[C@@H]2[C@@H](O)C[C@@]2(C)[C@H]1CC[C@]2(O)C(=O)CO [prednisolone]
- BALIR-2 expression after prednisolone treatment ([1]; RS4;11 cells): repressed
- decrease in expression of BALIR-2 following treatment ([1]; RS411 and NALM6 cell lines treated with prednisolone): 30-50%
- apoptosis after prednisolone treatment ([2]; RS4;11 cells): induction of apoptosis
- expression of FOS and JUN after prednisolone treatment ([3]; RS4;11 cells): increased expression
- expression of pro-apoptotic protein BIM ([3]; RS4;11 cells): upregulation
- Balir-2 expression upon prednisolone treatment [4]: decreased
- expression of Jun, Fos and Bim after prednisolone treatment [5]: upregulation
- apoptosis after prednisolone treatment [6]: increased apoptosis

B1: human-miR155-formatted siRNA2: human-miR155-formatted siRNA2 against BALIR-2; SEQ ID NO:34/44, printed as siRNA1-human155f (nucleic acid)
chain 1: GTAGGCTGTATGCTGTTTACTGAAATCTCCTAGGTGGTTTTGGCCACTGACTGACCACCTAGGATTTCAGTAAATGTATGATGCCTG
chain 2: TTTACTGAAATCTCCTAGGTG
modifications: expressed or natural sequence
- knockdown of BALIR-2 [7, 9]: do not knock down

B2: siRNA2: miR-155 formatted siRNA oligo against BALIR-2; SEQ ID NO:30, targeting sequence SEQ ID NO:40 (nucleic acid)
chain: GAAGGCTGTATGCTGTTTACTGAAATCTCCTAGGTGGTTTTGGCCACTGACTGACCACCTAGGATTTCAGTAAACAGGACACAAGGCCTG
modifications: expressed or natural sequence
- knockdown of BALIR-2 ([7]; NALM6 cell line): do not knock down
- knockdown of BALIR-2 [7, 9]: greatest degree of knockdown
- apoptosis measured by caspase-3 activity ([2]; DMSO): Increased apoptosis
- apoptosis measured by caspase-3 activity ([2]; no treatment): Increased apoptosis
- increases in FOS, HSPA6, SGK1, IL8, JUN, SERPINE1, CDKN1A and ICAM1 in siRNA group ([3]; RS4;11, microarray, both with and without prednisone treatment): 2-4 fold
- expression of FOS, JUN, SGK1 and SERPINE1 by RT-qPCR after knockdown ([3]; RS4;11 cells): upregulation
- expression of pro-apoptotic protein BIM ([3]; RS4;11 cells): upregulation

B3: siRNA4: miR-155 formatted siRNA oligo against BALIR-2; SEQ ID NO:32/42 (nucleic acid)
chain 1: GTAGGCTGTATGCTGTTTCACGGTGTGGCAGCTTTCGTTTTGCCTCCAACTGAGAAAGCTGACACCGTGAAATGTATGATGCCTG
chain 2: TTTCACGGTGTGGCAGCTTTC
modifications: expressed or natural sequence
- knockdown of BALIR-2 [7, 9]: do not knock down

B4: siRNA3: miR-155 formatted siRNA oligo against BALIR-2; SEQ ID NO:31/41 (nucleic acid)
chain 1: GTAGGCTGTATGCTGTAAGGTAAGTGGCAGGCATTTGTTTTGGCCACTGACTGACAAATGCCTCACTTACCTTATGTATGATGCCTG
chain 2: TAAGGTAAGTGGCAGGCATTT
modifications: expressed or natural sequence
- knockdown of BALIR-2 [7, 9]: do not knock down

B5: siRNA1: miR-155 formatted siRNA oligo against BALIR-2; SEQ ID NO:29, targeting sequence SEQ ID NO:39 (nucleic acid)
chain: GAAGGCTGTATGCTGAGATTAGGTTGGCATGATTCTGTTTTGGCCACTGACTGACAGAATCATCAACCTAATCTCAGGACACAAGGCCTG
modifications: expressed or natural sequence
- knockdown of BALIR-2 ([7]; NALM6 cell line): do not knock down
- cell proliferation (MTS assay) [8]: reduced

B6: human-miR155-formatted siRNA1: human-miR155-formatted siRNA1 against BALIR-2; SEQ ID NO:33/43 (nucleic acid)
chain 1: GTAGGCTGTATGCTGAGATTAGGTTGGCATGATTCTGTTTTGGCCACTGACTGACAGAATCATCAACCTAATCTTGTATGATGCCTG
chain 2: AGATTAGGTTGGCATGATTCT
modifications: expressed or natural sequence
- knockdown of BALIR-2 [7, 9]: do not knock down

Reference: patent publication US9909188B2, “Methods and compositions involving lincRNA and leukemia” (THE REGENTS OF THE UNIVERSITY OF CALIFORNIA, priority 2013, dated 2018)
